According to the DeepSol protein solubility set:

Assay: soluble on expression in E. coli; label from the status in PepcDB or PDB records

Sequence | soluble on expression in E. coli
MGSDKIHHHHHHMSQIIAIHSFRGGTGKSNIIANIGATMALKGQRVGIIDTDIQSPGIHIIFGLKEEKIRLTLNDYLWKRCDIQDTAYDVTDTLIAESGNTDKIRGSLYLIPSSIKAAEIARVLREGYDVVRLHDGFQEIIRSLKLDYLLIDTHPGLNEETLISIGIANTLLIILRPDNQDFQGTAVTVDVARKLKAARILLVLNKALASFNFTDLQQQLEQIYDVPVVGILPLAEDMVQLASKGLFCLRYPQHPITQTIQEITDQLAGLVVSHQ | not soluble
MGSDKIHHHHHHMVEMNFKVDAFEGPLDLLLHLIGQLEVDIYDIPMAEITDQYMEFVHTMQEMELDVASEYLVMAATLLAIKSKMLLPKQELEIDYDTLEEEEDPRDALVEKLMEYKRFKEAAKELKEKEAERSFYFSKPPMDLAEYDDGTKVAELDVSLNDMLSAFNKMLRRKKLNKPLHTRITTQEISIDQRMDSVLEKLNLQVNHRLRFDELFEEQTKEQLVVTFLALLELMKRKLVEVEQAESFADLYVQGKGEEIS | not soluble
MYFVDRKKLEETLSYMEQMLDRYKAEERWDEPLRQLALERIAHIVIEAVLDVGNAMIDGFIMRDPGSYNDIIDILADEQVISPADADRLKAFIAHRKMLVHEYARVDHAKLLADLNEHLPALEAYPKAVRAYLENELGPVSAFRN | soluble
ISEFMSDITVTNWAGNITYTAKELLRPHSLDALRALVADSARVRVLGSGHSFNEIAEPGDGGVLLSLAGLPSVVDVDTAARTVRVGGGVRYAELARVVHARGLALPNMASLPHISVAGSVATGTHGSGVGNGSLASVVREVELVTADGSTVVIARGDERFGGAVTSLGALGVVTSLTLDLEPAYEMEQHVFTELPLAGLDPATFETVMAAAYSVSLFTDWRAPGFRQVWLKRRTDRPLDGFPYAAPAAEKMHPVPGMPAVNCTEQFGVPGPWHERLPHFRAEFTPSSGAELQSEYLMPREHALAALHAMDAIRETLAPVLQTCEIRTVAADAQWLSPAYGRDTVAAHFTWVEDTAAVLPVVRRLEEALVPFAARPHWGKVFTVPAGELRALYPRLADFGALAGALDPAGKFTNAFVRGVLAG | soluble
MGSSHHHHHHSSGLVPRGSHMTEIYTSVLSYRLLEGKAYSDADTRSLDRMMRSIDEFFSANPGYINFHIYRSYRTDSDVIFWYSSRNPDLMILAKERVQASMRPIAVSSFSSISIYDESPYNAMNKKLEDSLRLPPLRYFVAYPMSKTPDWYLLDFDTRKEIMHEHIKMALNHPDEKGIRSYTTYSFGIGDQEFVVLYEIPDIAAWSRVTEKLREARARKWIIKETPILLGRLVDAGDIAGFLL | soluble
MSANGCCCCGGVDSREQKLNEIIEKYKNTKGALVPVLHEAQEVYGYLPLEVQKKIAEGLNIPLAEVYGVVTFYTQFSLNPKGKYKIQVCMGTACYVKGSGAILEKLKEKLEIDVGECTSDGKFSLEACRCIGACGLAPVIMINDDVYGRLVPDDIEGIIEKYKKE | soluble
MGSDKIHHHHHHMNDTPPPPSCARCSAVWQKSGTTNCWSNPDNRPGRPADCPSSAHGDIVASSFDEYRGESDDARLARVAARVEGLCYRKMTGSDAVVARWTRVEDTIALAKLMGWSKVGIATCIGLLDETRQLATILEAQGLEPVSVCCKAGSIDKLELGLDESDKVRPGTFEPACNPVAQAEVLNRCGTHMNIIVGLCVGHDMLFTKHSAAPVTTLVCKDRVTGHNPVAVLYGQNFYFKRLQKMPIDIPEGEE | not soluble
MTGMTNVTKLASEPSGQEFLVFTLGDEEYGIDILKVQEIRGYDQVTRIANTPAFIKGVTNLRGVIVPIVDLRIKFSQVDVDYNDNTVVIVLNLGQRVVGIVVDGVSDVLSLTAEQIRPAPEFAVTLSTEYLTGLGALGDRMLILVNIEKLLNSEEMALLDSAASEVA | soluble
MGRINELRMISRVAQMYFSEHKRQAEIAQHLNLSQATVSRMLKRAEAEGIVRTSIIPPPGTYSDLEAQLRERFDLPEAIVVDCSEDRDGAIMARIGEAAAHFLEVTLSQNEIIGVSSWSQTIFKMVENIHPLKGAKARYIVQTLGGMGDPSVQTHATQITTRLARLTEAEPKLLPVPGVATSREAKLLMLADPFVRETIDLFGSITLAIVGVGAVEPSELLARSGNIFSTKELADLAQAGAVGDISLRFFDKDGKPVKTPLDDRVIGLPLENLSNVDRVIALAGGLKKTEAIAGALRTGVIDVLVTDKFTAERLVGQET | soluble
MGSDKIHHHHHHMKYRFENHCVDKQCNLHIFADGKAAHSSTPEDGVNAVTHLAALLSPELNDKPWPKTSASLTVAAMNELVGLGIYAEQFGDLAYKDDFMGPLTLAPTVVVQTQKGTEVTINLRRPVGKTPELLAKQAREALALWQDKHQVQLADIESYWGEPMVMKGAPQQQTLLDVFAHFTGIVDPKPVAIGGSTNSKLFPNALSFGPAMPGVEYTGHTEKEFITHKQFMLNLKMYTAAFIELSAVK | not soluble
MGSDKIHHHHHHMDSFHSFNQHAFNRHAKTYHLFAHIQQQIAICLVQFLKQKHYAKVLDLGSGSGAVFNALERQNILIEEFIALDNSINMLKLHPTHSINIQKISLEHADFEEHVFCTYDLVVSSSSLQWARDLKSVLEKIALSSKEVALAIHTDFSLHEVHEFLGTPSPLRDLKTLKSLIKNAFKHFQIELENKRFALYFNRKQDCLNYLKKCGLLGGSTLSFKQKKHFFQNMAFEKLSYEVLLFSGIKRS | not soluble
MANKLTVLASVVAASSAMLSLSASAAESTLDKVLSQGFITCGVSTGLPGFSNPNAKGEWEGIDVEYCQAMAAAVLGDKTKVKFVPLTAKERFTALQSGEIDVLSRNTTWTLQRDSALGLNFVGVNYYDGQGFMVKKDLGVKSAKELNGASVCVQSGTTTELNLADYFRNSGMTYKPVVFDTAAQTSKGFDAGRCDVLTTDQSGLYALRLNLEKPDSAVVLPEIISKEPLGPVVRQDDDKWFNVAKWVLYAMVNAEEYGITSKNVDEMMKSDNPEVKRILGLDGPKGTGLGIRDDWSYQIVKQVGNYGESFDRTVGSGSPLKIDRGVNALWNAGGFMYAPPIR | not soluble
MSLKSWVKMNSWTSEDTKAVKMWFDLDKYREFENISINMLYHEIWARTYFFKPVIEEGMQKTVLKNYMQILDGDPFLIKEKHLNYMDSENKSYQPPYFFITTVDRIANISFACMRKALFIRANTEQYKIDSTIENEYISEIIPEQFPTTIMLEIDLAGGSDDEIAEALRVSLPQWRKVKGVKPAPLDAVRFGYGAIKKLISYRIIPMLDLLAWSERKKVLLSDDRLSRLLYTDEDDDKAIRQGYHIRDADRPFAMKTVETDFLRQFNFFINKNQHVKEMRVSDVMKLSDSEGHHHHHH | not soluble
MVVSYSDSTPFGERISDSLKETQKLHTMQLNLGKVCNLACRHCHVEAGPNRREQMSQEVMKKALELFVRHGFETLDITGGAPEMNPHFEWLIHEGSKVASRLIVRTNLVILKESPWEHLAEFYAKHKVELVASLPEVSEEEVDRVRGRGVYGDSIEVIKRLNALGYGKNPDLKLDFVYNPSGPFLPPRVMELERLYKEQLFEKEEIFFHRLLSMNNIPIGRFRDSLERSGELLEYETLLRTHFNPSATPHLMCRSQISVSYEGRIYDCDFNQMLSLEAQGAKSLEEMLIQKSLKRRVVFGEHCYACTAGLGSSCQGVIAPEPL | not soluble
MGSDKIHHHHHHMRIGLFTDTYFPQVSGVSTSIRTLKEGLEKEGHEVYIFTTTDRNVKRFEDPTIIRLPSVPFISFTDRRVVYRGLISAYRIAKDYELDIIHTQTEFSLGLLGKLVAKALRIPVVHTYHTQYEDYVGYIAKGKLIKPSMVKYIMRTYLSDLDGVICPSRIVLNLLDGYGVKIPKQVIPTGIPVENYRREDISEETIKNLRTELGLADNDTMLLSLSRVSFEKNIQAILMHLSAVVDENPHVKLVIVGDGPYLSDLKELVHSLELENSVIFTGMVEHSQVAIYYKACDFFISASTSETQGLTYIESLASGRPIIAQSNPYLDDVISDKMFGTLYKKESDLADAILDAIAETPKMTQEAYEQKLYEISAENFSKSVYAFYLDFLISQKASVKEKVSLTIGNKDSHSTLRFVRKAVYLPKKVFTFTGRASKKVVKAPKRRISSIRDFLD | not soluble
MGSDKIHHHHHHLRVGEVAPTAIDLHIHTIESDGSLSVAGVIQEAAERGVRVLALTDHETTNGVPEAMELGQKHNLNIIPGVELITAFKGKEVHLLGYFSYAAMMHSDLQSRLKELRQQRTYLAFEMVKRLQKDGFTLKWAEVEKIANPEGAVSKGHIMRALHEHENGTIQWPVIAKLFQPYGIAYLPFLEHPFEEAVDLIYTCGGVPVLAHPGLLRDDRMVGELLSYLPMGLEVYYGYWEQREALIQNYKTIAQDKAILTTGGSDFHGLFGPVKLGEIEVPEQCSRELQTFLKLDF | not soluble
MLAARGFFKSTRISNRFFAKKSVKNLTNDDVDVLTNPSDEYVDSFMKYHGNGRAVFKREDLAQWRDSFPDYKFKVISLKGAPRVIATAHLCTFRPIDPSINKSIMFMGFGWIDPGFRSPGTAKLQNDMCRVEMDREDDNIVSQINQPAKNFWHKLSKRKEFLDLGHKAGDVGYKTFYSAHDVVLPENLDLSGITVKNAREVPKRDIINYDQTIHPYHREKYIISHMYDRDGFGKVAYDEEGNVIGIGQAVIYENRKDCNLGPIYAENTRVAQAMFAEILKDIKASEKTVVSFEVRSGQLNKDSFCWLTPFLTHKPTRSHVCNLVYTDCVPENIDFSKVYSPTHAQLFMV | not soluble
MGSDKIHHHHHHMLTYTVYSEAGGVGKTTMAANLAVADARAGHDVLAIDMDPQEGSLSFLFDVADHRTDSEADSLVRHLVERPRGPFSDLIETSEGVDVLPAHNSLEVLSKHLRRREEEAADFGENWNPNVQLLRVLKDAGVPSEYDTVIIDPPATADVKLYNALHATRNLVIPFEPSGKGQQSVAGLADLVTGLEDTLDINVGVLAAVPNRFKGTNDQEEMLKRLQAESYDIPVVFRERTSLLEGCWRKQCSAFKYIEEHRSRERDYEIETLEQFEELAAHLRQTREQEATA | not soluble
GPGSMVLSSPVITLRRMVHFSSTPTSLHSRSSTSPLDALVDEVSSFIPATFTSIPQISRQLPPELMERVCDPVCGGLRSLLSRYAERFESKMIGQVHVVRSRLRQRESAAPCRRANAGAEVGYSFAVPSSPSGNAAAAASKSNSVDVQAVFTELQQLFPSYLVPVKALWTTVPEAEEQQVRARVLDALRSPQHRAWLTFHEHPAHCASHSTSADEAELTHVLEHGYVQLRLNPAAGDDRAAAPMPQSPNTRMAGHEVQPYEWYRVARVLPTTATELLFSGELQEQATLLLPPGRDVWHVLLSAPALFELRYAAPTTVDSGQQARVPTLSAEGSSLAPVCVKYDATPPPSLCASVYVRFRLEERFVPPDMAGAREESILRELETLTAERAASACGLSSRQRRRKRKLQRQLAYLRNPTPYFDERVLAQHLFDLLPLRDGVHQSALLGSLPQPAVQAFPQNVTELLQARNDLFQLSDVRHGILVRRADAPKVAQRSIESVTGEEILLHIFSSYSLRSDPQEGTTISRSLPRLPRLVRERLFTMQDIIAEVLLLYPDKVEVLADRSPSISSLSLSSSPHTSEADERALRELRTVRGRRDFLVPFRFVGEWQAKLTEKYTKQQTKDAVKSMRARQRSESSHRRPARY | not soluble
